The values below come from publication PMC6021170.

Residue numbers refer to the chain shown, from its start. Numbers in names are those of the source.

The nature of data set [1]: western blot of cell lysates, HEK293. The settings on record: glycan lost; control: PT-WT.
The nature of data set [2]: western blot of conditioned medium, HEK293. Conditions: glycan lost; control: PT-WT. A general note: In western blotting, separated proteins are transferred to a membrane and probed.
Data set [3] in a line: ELISA of cell lysates, endogenous prothrombin, HepG2. Conditions: glycan changed form; control: untreated HepG2 cells. On the technique in general: ELISA stands for enzyme-linked immunosorbent assay.
Data set [4] can be described thus: ELISA of conditioned medium, endogenous prothrombin, HepG2. The settings on record: glycan changed form; control: untreated HepG2 cells.
Data set [5] concerns the target enteropeptidase mutant EK-4Q (human) (UniProt P00734). As to the kind of experiment: co-IP; lysates of transfected HEK293 cells immunoprecipitated with anti-V5 antibody and protein A-Sepharose; co-precipitated endogenous chaperones detected by western blotting and densitometry; cells without or with DNJ (2 mM, 37°C, 24-48 hr).
The target in data set [6] is prothrombin mutant PT-N416Q (human) (UniProt P98073). The data set is described as above.
Data set [7] can be described thus: confocal co-staining after 4 hr CHX. Conditions: glycan lost; control: WT corin.
The nature of data set [8]: confocal co-staining with or without CHX. The settings on record: glycan lost; control: WT corin.
Data set [9] can be described thus: cycloheximide chase, lysate western blot. Conditions: glycan lost; control: WT corin.
Data set [10] can be described thus: western blot of cell lysates, zymogen bands. Conditions: glycan lost.
Data set [11] in a line: western blot, cleaved Corin-p band in lysate. The settings on record: glycan lost; control: WT corin.
Data set [12] can be described thus: Endo H sensitive/resistant band ratio after 4 hr CHX. Conditions: glycan lost; control: WT corin.
Data set [13] can be described thus: cell surface biotinylation, western blot densitometry. Conditions: glycan lost.
The nature of data set [14]: western blot of cell lysates. The settings on record: glycan lost.
A short description of data set [15]: western blot of conditioned medium. The settings on record: glycan lost.
The mark [16] stands for this setting: control: sR801A (soluble corin).

Chain of UniProt P98073 (P98073 whole entry, stated change not applied): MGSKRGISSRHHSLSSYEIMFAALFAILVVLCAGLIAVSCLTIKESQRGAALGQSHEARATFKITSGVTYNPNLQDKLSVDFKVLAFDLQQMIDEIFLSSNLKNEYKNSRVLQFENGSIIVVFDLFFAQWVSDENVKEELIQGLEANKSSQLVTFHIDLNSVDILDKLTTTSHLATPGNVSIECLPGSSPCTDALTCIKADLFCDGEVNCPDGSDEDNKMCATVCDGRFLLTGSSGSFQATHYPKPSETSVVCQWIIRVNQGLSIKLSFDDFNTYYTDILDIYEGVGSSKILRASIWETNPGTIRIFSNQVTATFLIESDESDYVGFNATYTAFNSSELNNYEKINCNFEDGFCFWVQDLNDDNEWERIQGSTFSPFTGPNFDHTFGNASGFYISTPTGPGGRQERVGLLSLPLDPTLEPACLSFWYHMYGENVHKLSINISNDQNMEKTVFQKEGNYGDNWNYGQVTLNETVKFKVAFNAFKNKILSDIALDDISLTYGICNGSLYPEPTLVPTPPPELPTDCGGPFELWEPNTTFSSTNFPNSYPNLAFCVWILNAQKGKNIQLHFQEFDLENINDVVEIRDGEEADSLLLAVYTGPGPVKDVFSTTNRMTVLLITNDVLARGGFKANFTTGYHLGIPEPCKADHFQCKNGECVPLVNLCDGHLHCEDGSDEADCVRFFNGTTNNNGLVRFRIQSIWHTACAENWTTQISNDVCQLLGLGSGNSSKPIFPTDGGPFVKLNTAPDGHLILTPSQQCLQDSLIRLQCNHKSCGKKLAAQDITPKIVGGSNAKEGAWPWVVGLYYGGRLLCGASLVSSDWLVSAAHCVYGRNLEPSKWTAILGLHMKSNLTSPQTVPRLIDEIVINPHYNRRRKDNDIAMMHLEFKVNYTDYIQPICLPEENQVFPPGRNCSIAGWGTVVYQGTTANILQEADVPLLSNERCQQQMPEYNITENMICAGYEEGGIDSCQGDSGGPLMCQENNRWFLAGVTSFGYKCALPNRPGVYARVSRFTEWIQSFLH

Regarding prothrombin (PT): PT-N416Q, in [1], the expression_or_secretion result is listed as “no change”. Further, the “expression_or_secretion, percent_of_wt” value in data set [2] is “decreases”.
prothrombin (PT): DNJ: the expression_or_secretion entry in data set [3] was “no change”. Also, the “expression_or_secretion, percent_of_wt” value in [4] is listed as “decreases”.

B1: calnexin (natural protein)
chain: HDGHDDDVIDIEDDLDDVIEEVEDSKPDTTAPPSSPKVTYKAPVPTGEVYFADSFDRGTLSGWILSKAKKDDTDDEIAKYDGKWEVEEMKESKLPGDKGLVLMSRAKHHAISAKLNKPFLFDTKPLIVQYEVNFQNGIECGGAYVKLLSKTPELNLDQFHDKTPYTIMFGPDKCGEDYKLHFIFRHKNPKTGIYEEKHAKRPDADLKTYFTDKKTHLYTLILNPDNSFEILVDQSVVNSGNLLNDMTPPVNPSREIEDPEDRKPEDWDERPKIPDPEAVKPDDWDEDAPAKIPDEEATKPEGWLDDEPEYVPDPDAEKPEDWDEDMDGEWEAPQIANPRCESAPGCGVWQRPVIDNPNYKGKWKPPMIDNPSYQGIWKPRKIPNPDFFEDLEPFRMTPFSAIGLELWSMTSDIFFDNFIICADRRIVDDWANDGWGLKKAADGAAEPGVVGQMIEAAEERPWLWVVYILTVALPVFLVILFCCSGKKQTSGMEYKKTDAPQPDVKEEEEEKEEEKDKGDEEEEGEEKLEEKQKSDAEEDGGTVSQEEEDRKPKAEEDEILNRSPRNRKPRRE
With B1, the co-precipitated level, percent of that with EK-WT in data set [5] was 165%. In [6], this molecule registered a co-precipitated level, percent of that with PT-WT of 171%.

B2: corin: N1022Q (protein)
parent chain: MKQSPALAPEERCRRAGSPKPVLRADDNNMGNGCSQKLATANLLRFLLLVLIPCICALVLLLVILLSYVGTLQKVYFKSNGSEPLVTDGEIQGSDVILTNTIYNQSTVVSTAHPDQHVPAWTTDASLPGDQSHRNTSACMNITHSQCQMLPYHATLTPLLSVVRNMEMEKFLKFFTYLHRLSCYQHIMLFGCTLAFPECIIDGDDSHGLLPCRSFCEAAKEGCESVLGMVNYSWPDFLRCSQFRNQTESSNVSRICFSPQQENGKQLLCGRGENFLCASGICIPGKLQCNGYNDCDDWSDEAHCNCSENLFHCHTGKCLNYSLVCDGYDDCGDLSDEQNCDCNPTTEHRCGDGRCIAMEWVCDGDHDCVDKSDEVNCSCHSQGLVECRNGQCIPSTFQCDGDEDCKDGSDEENCSVIQTSCQEGDQRCLYNPCLDSCGGSSLCDPNNSLNNCSQCEPITLELCMNLPYNSTSYPNYFGHRTQKEASISWESSLFPALVQTNCYKYLMFFSCTILVPKCDVNTGEHIPPCRALCEHSKERCESVLGIVGLQWPEDTDCSQFPEENSDNQTCLMPDEYVEECSPSHFKCRSGQCVLASRRCDGQADCDDDSDEENCGCKERDLWECPSNKQCLKHTVICDGFPDCPDYMDEKNCSFCQDDELECANHACVSRDLWCDGEADCSDSSDEWDCVTLSINVNSSSFLMVHRAATEHHVCADGWQEILSQLACKQMGLGEPSVTKLIQEQEKEPRWLTLHSNWESLNGTTLHELLVNGQSCESRSKISLLCTKQDCGRRPAARMNKRILGGRTSRPGRWPWQCSLQSEPSGHICGCVLIAKKWVLTVAHCFEGRENAAVWKVVLGINNLDHPSVFMQTRFVKTIILHPRYSRAVVDYDISIVELSEDISETGYVRPVCLPNPEQWLEPDTYCYITGWGHMGNKMPFKLQEGEVRIISLEHCQSYFDMKTITTRMICAGYESGTVDSCMGDSGGPLVCEKPGGRWTLFGLTSWGSVCFSKVLGPGVYSNVSYFVEWIKRQIYIQTFLLN
As for B2, the “localisation_or_trafficking, other: Pearson's correlation coefficient” value in data set [7] is listed as “increases, 0.35 ± 0.05 vs 0.15 ± 0.06”. Further, the localisation_or_trafficking result in data set [8] is “no change”; in data set [12], “changes”. In addition, in [9], the “degradation_or_half_life, half_life” value is “increases, 6.1 ± 0.3 vs 3.8 ± 0.4”. Also, the expression_or_secretion entry in data set [10] (control: WT corin) is given as “no change”. In [11], the “other: proteolytic processing” value is on record as “decreases”. Besides, in data set [13] (control: WT corin), the “expression_or_secretion, percent_of_wt” value is “decreases”.

B3: corin: sN1022Q (protein)
parent chain: B2 parent chain
Consider B3, for which, in [14] (control: sWT (soluble corin)), the expression_or_secretion result is given as “no change”. In addition, in data set [15] (control: sWT (soluble corin)), the “expression_or_secretion, percent_of_wt” value is “decreases”.

B4: corin: R801A/N1022Q (protein)
parent chain: B2 parent chain with R801A
As for B4, the expression_or_secretion entry in data set [10] (control: R801A corin) is recorded as “no change”. For the same molecule, in [13] (control: R801A corin), the “expression_or_secretion, percent_of_wt” value is “decreases”.

B5: corin: sR801A/N1022Q (protein)
parent chain: B2 parent chain
As to B5, in data set [14] (setting [16]), the expression_or_secretion entry is listed as “no change”. Moreover, the “expression_or_secretion, percent_of_wt” value in data set [15] (setting [16]) was “decreases”.
